Laboratory results as given in patent US20220332795A1 (ARO BIOTHERAPEUTICS, published 2022).
Changes are numbered by the printed parent chain.

B1: SEQ ID NO 69 (designed binder, not shown: small tags and cut ends)
chain: MLPAPKNLVVSRVTEDSARLSWTAPDAAFDSFHIAYEETATSGEAIYLRVPGSERSYDLTGLKPGTEYGVEIEGVKGGARSRPLYADFTT
notes: FN3 domain, hit of the apical domain panning
B2: SEQ ID NO 10 (designed binder, not shown: small tags and cut ends)
chain: MLPAPKNLVVSRVTEDSARLSWTAPDAAFDSFKIAYIETATRGEAIVLTVPGSERSYDLTGLKPGTEYVVPIPGVKGGNTSSPLSAIFTT
notes: as for B1
B3: SEQ ID NO 3 (designed binder, not shown: small tags and cut ends)
chain: B2 chain with K33N, A35E, I37A, A40R, T41W, R42Y, P73D, N79I, T80A, S82K
notes: as for B1
B4: SEQ ID NO 79 (designed binder, not shown: small tags and cut ends)
chain: MLPAPKNLVVSRVTEDSARLSWTAPDAAFDSFVIEYTERFWSGEAIVLTVPGSERSYDLTGLKPGTEYSVPIDGVKGGQCSTPLSAIFTT
notes: as for B1
B5: SEQ ID NO 96 (designed binder, not shown: small tags and cut ends)
chain: MSLPAPKNLVVSRVTEDSARLSWTAPDAAFDSFPIAYLEVFYEGEAIVLTVPGSERSYDLTGLKPGTEYQVPIEGVKGGAMSLPLSAIFTT
notes: as for B1
B6: SEQ ID NO 21 (designed binder, not shown: small tags and cut ends)
chain: MLPAPKNLVVSRVTEDSARLSWTAPDAAFDSFSIRYNEFIVAGEAIVLTVPGSERSYDLTGLKPGTEYDVPIAGVKGGGASWPLSAIVTT
notes: as for B1
B7: SEQ ID NO 97 (designed binder, not shown: small tags and cut ends)
chain: MLPAPKNLVVSRVTEDSARLSWTAPDAAFDSFHIWYEEETTIGEAIYLHVPGSERSYDLTGLKPGTEYEVHITGVKGGPYSRPLFANFTT
notes: as for B1
B8: SEQ ID NO 91 (designed binder, not shown: small tags and cut ends)
chain: MLPAPKNLVVSRVTEDSARLSWTAPDAAFDSFQIHYWETQGFGEAIVLTVPGSERSYDLTGLKPGTEYPVLIPGVKGGPSSLPLSAIFTT
notes: as for B1
B9: SEQ ID NO 71 (designed binder, not shown: small tags and cut ends)
chain: MLPAPKNLVVSRVTEDSARLSWTAPDAAFDSFPISYLELSLYGEAIVLTVPGSERSYDLTGLKPGTEYPVGIAGVKGGVVSRPLSAIFTT
notes: as for B1
B10: SEQ ID NO 101 (designed binder, not shown: small tags and cut ends)
chain: B9 chain with P33H, S35L, L37E, S40F, Y42V, P69K, G71P, A73S, V79P
notes: as for B1
B11: SEQ ID NO 67 (designed binder, not shown: small tags and cut ends)
chain: MLPAPKNLVVSRVTEDSARLSWTAPDAAFDSFTILYAEQAQFGEAIVLTVPGSERSYDLTGLKPGTEYPITGVKGGTRSGPLSAISTT
notes: as for B1
B12: SEQ ID NO 2 (designed binder, not shown: small tags and cut ends)
chain: MLPAPKNLVVSEVTEDSARLSWQGVARAFDSFMINYSELFWMGEAIVLTVPGSERSYDLTGLKPGTEYVVRIKGVKGGKGSWPLHAHFTT
notes: as for B1
B13: SEQ ID NO 23 (designed binder, not shown: small tags and cut ends)
chain: MLPAPKNLVVSRVTEDSARLSWTAPDAAFDSFAIWYHEWYGDGEAIVLTVPGSERSYDLTGPKPGTEYRVRISGVKGGFESGPLSAIFTT
notes: as for B1
B14: SEQ ID NO 93 (designed binder, not shown: small tags and cut ends)
chain: MLPAPKNLVVSRVTEDSARLSWTAPDAAFDSFAIEYYEPVPAGEAIYLDVPGSERSYDLTGLKPGTEYDVTIYGVKGGYYSHPLFASFTT
notes: as for B1
B15: SEQ ID NO 78 (designed binder, not shown: small tags and cut ends)
chain: MLPAPKNLVVSRVTEDSARLSWTAPDAAFDSFGIGYYEHKRFGEAIQLSVPGSERSYDLTGLKPGTEYEVDIEGVKGGVLSWPLFAEFTT
notes: as for B1
B16: SEQ ID NO 75 (designed binder, not shown: small tags and cut ends)
chain: MLPAPKNLVVSRVTEDSARLSWTAPDAAFDSFTISYGEEALIGEAIYLRVPGSERSYDLTGLKPGTEYYVHIEGVKGGSWSQPLAAAFTT
notes: as for B1
B17: SEQ ID NO 16 (designed binder, not shown: small tags and cut ends)
chain: MLPAPKNLVVSRVTEDSARLSWTAPDAAFDSFGIAYREFRPSGEAIVLTVPGSERSYDLTVETGYRNEVVICGVKGGPWSGPLSAIFTT
notes: as for B1
B18: SEQ ID NO 89 (designed binder, not shown: small tags and cut ends)
chain: MLPAPENLVVSRVTEDSARLSWTAPDAAFDSFWIEYYEGVIQGEAIVLTVPGSERSYDLTGLKPGTEYFVAIWGVKGGKWSVPLSAIFTT
notes: as for B1
B19: SEQ ID NO 22 (designed binder, not shown: small tags and cut ends)
chain: MLPAPKNLVVSRVTEDSARLSWTAPDAAFDSFWYLELQFAGEAIVLTVPGSERSYDLTGLKPGTEYNVPITGVKGGIISFPLSAIFTT
notes: as for B1
B20: SEQ ID NO 87 (designed binder, not shown: small tags and cut ends)
chain: B4 chain with V33A, R39F, F40L, W41Y, S69G, D73N, Q79F, C80V, T82P, F88V
notes: as for B1
B21: SEQ ID NO 80 (designed binder, not shown: small tags and cut ends)
chain: MLPAPKNLVVSRVTEDSARLSWTAPDAAFDSFWIDYEEEGVIGEAIYLHVPGSERSYDLTGLKPGTEYVVKIHGVKGGHPSHPLVAVFTT
notes: as for B1
B22: SEQ ID NO 14 (designed binder, not shown: small tags and cut ends)
chain: MLPAPKNLVVSRVTEDSARLSWTAPDAAFDSFPIYYVENVVWGEAIVLTVPGSERSYDLTGLKPGTEYWEVIIGVKGGQCSRPLSAIFTT
notes: as for B1
B23: SEQ ID NO 20 (designed binder, not shown: small tags and cut ends)
chain: MLPAPKNLVVARVTEDSARLSWTAPDAAIDSFPIDYSEYWWGGEAIVLTVPGSERSYDLTGLKPGTEYPVLITGVKGGYRSGPLSAIFTT
notes: as for B1
B24: SEQ ID NO 74 (designed binder, not shown: small tags and cut ends)
chain: MLPAPKNLVVSRVTEDSARLSWTAPDAAFDSFSITYLEWWNLGEAIVLTVPGSERSYDLTGLKPGTEYMVTIPGVKGGMSSYPLSAIFTT
notes: as for B1
B25: SEQ ID NO 100 (designed binder, not shown: small tags and cut ends)
chain: B24 chain with S33Y, T35W, L37E, W39V, W40M, N41Y, M69N, T71P, M79H, Y82P
notes: as for B1
B26: SEQ ID NO 90 (designed binder, not shown: small tags and cut ends)
chain: MLPAPKNLVVSRVTEDSARLSWQGVARAFDSFLITYREQIFAGEVIVLTVPGSERSYDLTGLKPGTEYPVWIQGVKGGSPSAEFTT
notes: as for B1
B27: SEQ ID NO 98 (designed binder, not shown: small tags and cut ends)
chain: MLPAPKNLVVSRVTEDSARLSWTAPDAAFDSFGIAYDEWPEFGEAIVLTVPGSERSYDLTGLKPDTEYIVEIYGVKGGWFSWPLSAIFTT
notes: as for B1

The binders below were run against T1, recombinant biotinylated CD71 extracellular domain (Sino Biologics) with an N-terminal 6His tag (human, UniProt P02786 89-760, biotinylated (site not stated)) (assay: primary solution ELISA screen).
T1 construct: extracellular domain; also called hCD71; huCD71 ECD
T1 sequence (P02786 other isoform, or with tags, fused parts or gaps): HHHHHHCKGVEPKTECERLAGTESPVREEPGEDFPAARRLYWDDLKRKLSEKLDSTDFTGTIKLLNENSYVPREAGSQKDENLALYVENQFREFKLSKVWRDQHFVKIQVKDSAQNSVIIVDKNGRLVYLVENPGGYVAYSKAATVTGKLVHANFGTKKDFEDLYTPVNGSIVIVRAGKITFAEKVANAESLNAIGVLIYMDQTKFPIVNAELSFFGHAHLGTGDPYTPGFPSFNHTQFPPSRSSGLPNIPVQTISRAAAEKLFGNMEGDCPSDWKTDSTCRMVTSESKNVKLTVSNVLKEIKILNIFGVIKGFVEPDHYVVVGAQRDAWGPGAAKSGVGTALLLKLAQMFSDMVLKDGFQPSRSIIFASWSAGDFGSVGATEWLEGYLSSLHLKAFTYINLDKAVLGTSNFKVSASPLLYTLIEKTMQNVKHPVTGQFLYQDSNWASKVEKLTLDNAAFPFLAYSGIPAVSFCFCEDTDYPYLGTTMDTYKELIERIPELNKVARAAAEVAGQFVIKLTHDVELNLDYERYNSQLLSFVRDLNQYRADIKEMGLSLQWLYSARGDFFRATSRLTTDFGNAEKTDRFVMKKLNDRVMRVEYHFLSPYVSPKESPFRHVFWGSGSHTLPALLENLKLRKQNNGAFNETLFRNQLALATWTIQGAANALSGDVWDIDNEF

Row | RLU [RLU] | Binder
1 | 3.17e+06 | B1
2 | 788000 | B2
3 | 687000 | B3
4 | 273000 | B4
5 | 726000 | B5
6 | 579000 | B6
7 | 957000 | B7
8 | 491000 | B8
9 | 2.64e+06 | B9
10 | 336000 | B10
11 | 1.85e+06 | B11
12 | 383000 | B12
13 | 1.39e+06 | B13
14 | 430000 | B14
15 | 271000 | B15
16 | 530000 | B16
17 | 657000 | B17
18 | 919000 | B18
19 | 3.15e+06 | B19
20 | 282000 | B20
21 | 844000 | B21
22 | 1.4e+06 | B22
23 | 791000 | B23
24 | 824000 | B24
25 | 408000 | B25
26 | 564000 | B26
27 | 1.31e+06 | B27

Each binder was assayed against T1, recombinant biotinylated CD71 … (assay: primary solution ELISA screen, signal on hCD71 over HSA).

Row | hCD71:HSA | Binder
28 | 1170 | B1
29 | 27 | B2
30 | 69 | B3
31 | 46 | B4
32 | 48 | B5
33 | 85 | B6
34 | 147 | B7
35 | 74 | B8
36 | 96 | B9
37 | 73 | B10
38 | 131 | B11
39 | 14 | B12
40 | 110 | B13
41 | 91 | B14
42 | 29 | B15
43 | 143 | B16
44 | 95 | B17
45 | 141 | B18
46 | 105 | B19
47 | 77 | B20
48 | 25 | B21
49 | 1280 | B22
50 | 43 | B23
51 | 56 | B24
52 | 79 | B25
53 | 46 | B26
54 | 117 | B27
